According to patent US12084521B2, “TLR9 inhibitors to suppress inflammatory response to pathogens” (University Of Maryland, Baltimore, priority 2018, dated 2024):
No end group written: not given here.

Experiments:
[1] = target: recombinant TIRAP (Homo sapiens, UniProt P58753); details: cited from earlier work
[2] = target: T1, TIRAP TIR (Homo sapiens, UniProt P58753); experiment: FLIM/FRET binding of Cy3-labeled peptides to Cer-fused TIR in HeLa cells; details: HeLa cells, Cy3-peptide 2.5-40 μM, 1 hour
T1 construct: fused with TLR9 TIR or TIRAP TIR; expressed in transfected cells; host or cells: HeLa
T1 sequence (P58753 84-213 limits assumed): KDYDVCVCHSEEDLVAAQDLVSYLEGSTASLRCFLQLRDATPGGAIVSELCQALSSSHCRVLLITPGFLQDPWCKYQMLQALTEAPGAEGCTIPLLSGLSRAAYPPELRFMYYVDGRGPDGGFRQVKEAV
Description: Three million HeLa cells were transfected with 10 μg of MyD88-Cer, TIRAP-Cer, TRAM-Cer, TLR2-Cer, TLR4 TIR-Cer, or TLR9 TIR-Cer expression vectors using a Lipofectamine™ 3000 kit from Invitrogen™ per manufacturer recommendations. Twenty four hours later, the transfected cells were trypsinized and reseeded into a 50-well gasket (Grace Bio-Labs™) mounted on a microscope slide at the density 8000 cells/well. The next day, cells were treated with Cy3-9R34-ΔN or Cy3-9R11 for 1 hour and fixed on the slides with a 4% paraformaldehyde solution.
Fluorescence lifetime images were acquired using the Alba V FLIM™ system (ISS™ Inc.). The excitation was from the laser diode 443 nm coupled with scanning module (ISS™) through multiband dichroic filter 443/532/635 nm (Semrock™) to Olympus™ IX71S microscope with objective 20×0.45 NA (UPlan™ Olympus™). Emission was observed through bandpass filter […] (Chroma Technology™) and detected by a photomultiplier H7422-40 (Hamamatsu™). Measurements were performed using frequency domain (FD) and time domain (TD) modalities of the FLIM system. FD FLIM data were acquired using ISS™ A320 FastFLIM™ electronics with n harmonics of 20 MHz laser repetition frequency (n=1, 2, 3, 4, 5, 6). FastFLIM™ was calibrated using fluorescein in buffer pH 8.0 as a standard with a single lifetime of 4.0 ns. TD FLIM images were acquired using time-correlated single photon counting TCSPC™ Model SPC-830 (Becker & Hick™).
Images (256×256 pixels) were acquired with resolution varied in the range ˜0.4-0.7 μm/pixel, using scan speed 1 ms/pixel. To avoid pixel intensity saturation in bright cells and to improve the signal from dim cells, two to five overlapping scans were used for acquisition of FLIM images. Image sizes varied from 100×100 to 180×180 μm to accommodate multiple cells. FLIM data were analyzed with VistaVision™ Suite software (Vista™ v.212 from ISST). Fluorescence lifetime was determined using single- and bi-exponential intensity decay models. Average lifetime images were generated based on pixel-by-pixel analysis using the combined signal of two neighboring pixels in all directions (bin 2=25 pixels). The binning was used to improve the signal for analysis. The average lifetimes were calculated from fitted parameters, decay times τi and amplitudes αi, τa=Σαiτi. The bi-exponential fitting procedure was performed with one lifetime component fixed at 3.1 nsec, which was found common for most images. To calculate the effective FRET efficiency (E), average lifetimes of the donor only images (τD) and donor-acceptor images (τDA) were used, E=1−τDA/τD.
To identify potential binding partners of inhibitory peptides a FRET approach coupled with Fluorescence Lifetime Imaging Microscopy (FLIM) was used. HeLa cells were transiently transfected with an expression vector that encodes a TIR domain fused with Cerulean fluorescent protein (Cer). Cells were treated with various concentrations of a Cy3-labeled inhibitory peptide 48 hours after transfection. Cy3 is a suitable FRET acceptor for Cer fluorescence. A direct molecular interaction of a Cy3-labeled peptide with Cer-fused TIR domain should quench Cer fluorescence, leading to a decreased fluorescence lifetime.
TLR9, MyD88, and TIRAP were selected as potential primary binding partners for Cy3-9R34-ΔN and Cy3-9R11. Cer-fused TLR2 and TLR4 TIR domains, and Cer not fused to a TIR, were used as controls. […] Therefore, the TIRAP-Cer with Cy3-2R9 was used as a positive binding control. Binding of Cy3-labeled CPDPs to Cerulean- (Cer-) labeled TIR domains was tested as follows. Fluorescence Lifetime IMages (FLIM) were made of HeLa cells expressing Cer not fused with a TIR domain (upper row) or fused with TLR9 TIR or TIRAP TIR (middle and bottom rows) and treated with a Cy3-labeled decoy peptide for 1 hour.
A progressive shift of average fluorescence lifetime towards lower values observed with increasing peptide concentrations indicates the binding between donor and acceptor moieties. […]

[3] = test system: TLR2/1 signaling; experiment: Plasma cytokines after i.p. Pam3C in mice; type: in vivo, C57BL/6J mice; details: peptide 200 nmol/mouse i.p.; Pam3C 67 nmol/mouse
Description: Systemic cytokine levels were measured in plasma samples obtained 1, 3, and 5 hours after intraperitoneal (i.p.) administration of 7.86 nmol (50 μg) of ODN 1668 or 67 nmol of Pam3C per mouse, using ELISA kits from Biolegend™ Inc. CPDP were dissolved in PBS and administered i.p. at the dose of 200 nmol per mouse 1 hour before administration of a TLR agonist. For survival experiments, mice were sensitized to TLR9 agonists by i.p. injection of 20 mg of D-Gal 30 minutes before administration of peptides or PBS. ODN 1668 was used at the doses of 3.93 or 7.86 nmol/mouse (25 or 50 μg/mouse) 1.5 hours after D-Gal. Animal survival was monitored for 50 hours. All agents were administered i.p. in 500 μL volume of PBS. […]
To test the in vivo efficacy and specificity of 9R34-ΔN, C57BL/6J mice were mock-treated or treated i.p. with a single dose of inhibitory or control peptide (200 nmol/mouse) and challenged with TLR9 agonist ODN 1668 (7.86 nmol/mouse) or TLR2/1 agonist Pam3C (67 nmol/mouse) 1 hour later. Plasma concentrations of TNFα and IL-12-p40 were measured 1, 3, and 5 hours after the challenge. […]
Plasma TNFα and IL-12-p40 levels following intraperitioneal administration of ODN 1668 to C57Bl/6J mice in peptide-pretreated and control mice are shown in FIG. 14A and FIG. 14B. […] The statistical significance of changes in cytokine concentrations was determined by a two-way ANOVA test; *p<0.001.

[4] = test system: TLR9 signaling; experiment: Plasma cytokines after i.p. ODN 1668 in mice; type: in vivo, C57BL/6J mice; details: peptide 200 nmol/mouse i.p.; ODN 1668 7.86 nmol/mouse
Description: Systemic cytokine levels were measured in plasma samples obtained 1, 3, and 5 hours after intraperitoneal (i.p.) administration of 7.86 nmol (50 μg) of ODN 1668 or 67 nmol of Pam3C per mouse, using ELISA kits from Biolegend™ Inc. CPDP were dissolved in PBS and administered i.p. at the dose of 200 nmol per mouse 1 hour before administration of a TLR agonist. For survival experiments, mice were sensitized to TLR9 agonists by i.p. injection of 20 mg of D-Gal 30 minutes before administration of peptides or PBS. ODN 1668 was used at the doses of 3.93 or 7.86 nmol/mouse (25 or 50 μg/mouse) 1.5 hours after D-Gal. Animal survival was monitored for 50 hours. All agents were administered i.p. in 500 μL volume of PBS. Animals had free access to food and water during the observation period. All animal experiments were conducted in accordance with the national guidelines for the care and use of laboratory animals under a protocol that was approved by the UMB IACUC.
To test the in vivo efficacy and specificity of 9R34-ΔN, C57BL/6J mice were mock-treated or treated i.p. with a single dose of inhibitory or control peptide (200 nmol/mouse) and challenged with TLR9 agonist ODN 1668 (7.86 nmol/mouse) or TLR2/1 agonist Pam3C (67 nmol/mouse) 1 hour later. Plasma concentrations of TNFα and IL-12-p40 were measured 1, 3, and 5 hours after the challenge. Both TLR agonists increased concentrations of TNFα and IL-12-p40 in 1 hour samples from below the limit of detection to about 1.2 and about 6 ng/mL in the case of ODN 1668, and to 0.12 ng/mL and 1 ng/mL after treatment with Pam3C.
Plasma TNFα and IL-12-p40 levels following intraperitioneal administration of ODN 1668 to C57Bl/6J mice in peptide-pretreated and control mice are shown in FIG. 14A and FIG. 14B. Data shown in these figures represent the means±SEM obtained in at least three independent experiments. The statistical significance of changes in cytokine concentrations was determined by a two-way ANOVA test; *p<0.001.

Sequence of recombinant TIRAP (P58753 whole entry, the tested form may be a part): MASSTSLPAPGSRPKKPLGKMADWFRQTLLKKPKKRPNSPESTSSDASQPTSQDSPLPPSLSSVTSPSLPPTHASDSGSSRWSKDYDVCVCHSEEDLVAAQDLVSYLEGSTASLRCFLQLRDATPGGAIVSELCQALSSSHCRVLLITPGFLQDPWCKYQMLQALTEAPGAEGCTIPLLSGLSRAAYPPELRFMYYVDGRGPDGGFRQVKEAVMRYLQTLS

## PQRFCKLRKIMNT (also: Cy3 label, position not given here) [Peptide 2R9, reference compound]
[1]
  affinity for recombinant TIRAP: nanomolar
[2]
  quenching of TIRAP-Cer fluorescence: slightly higher than for the TLR9-9R34-ΔN pair
[3]
  Pam3C-induced plasma cytokine levels (TNFα, IL-12-p40): suppressed cytokine induction
[4]
  ODN 1668-induced plasma cytokine levels (TNFα, IL-12-p40): suppressed cytokine induction
